The source of these data is patent US20220185889.

The series addresses CTLA-4 Ig functionalized with GzmB substrate (UniProt P16410).

Sequence of CTLA-4 Ig functionalized with GzmB substrate (P16410 38-161): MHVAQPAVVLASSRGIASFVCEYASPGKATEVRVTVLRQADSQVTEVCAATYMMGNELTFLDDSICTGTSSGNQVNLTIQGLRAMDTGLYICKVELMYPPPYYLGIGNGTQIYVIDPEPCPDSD
Sequence of mannose-associated serine protease 1 (P48740 20-699): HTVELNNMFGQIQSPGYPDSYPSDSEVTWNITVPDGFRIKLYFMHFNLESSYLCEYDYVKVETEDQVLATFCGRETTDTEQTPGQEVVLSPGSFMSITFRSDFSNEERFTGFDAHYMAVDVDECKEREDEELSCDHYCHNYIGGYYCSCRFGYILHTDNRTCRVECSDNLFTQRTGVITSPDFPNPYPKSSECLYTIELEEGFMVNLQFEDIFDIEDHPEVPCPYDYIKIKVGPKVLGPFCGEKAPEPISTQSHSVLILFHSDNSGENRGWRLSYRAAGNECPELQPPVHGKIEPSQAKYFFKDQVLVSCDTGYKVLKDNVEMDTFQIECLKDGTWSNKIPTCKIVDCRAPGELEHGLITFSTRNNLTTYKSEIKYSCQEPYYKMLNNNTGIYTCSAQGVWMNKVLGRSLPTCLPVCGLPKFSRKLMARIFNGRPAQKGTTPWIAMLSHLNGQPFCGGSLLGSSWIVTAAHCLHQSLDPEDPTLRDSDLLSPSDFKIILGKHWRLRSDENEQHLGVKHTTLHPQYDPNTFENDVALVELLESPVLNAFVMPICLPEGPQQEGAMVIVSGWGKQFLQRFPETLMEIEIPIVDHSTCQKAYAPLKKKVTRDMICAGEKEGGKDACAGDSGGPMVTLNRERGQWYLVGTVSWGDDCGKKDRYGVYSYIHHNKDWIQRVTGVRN
Sequence of matrix metalloproteinase 2 (P08253 110-660): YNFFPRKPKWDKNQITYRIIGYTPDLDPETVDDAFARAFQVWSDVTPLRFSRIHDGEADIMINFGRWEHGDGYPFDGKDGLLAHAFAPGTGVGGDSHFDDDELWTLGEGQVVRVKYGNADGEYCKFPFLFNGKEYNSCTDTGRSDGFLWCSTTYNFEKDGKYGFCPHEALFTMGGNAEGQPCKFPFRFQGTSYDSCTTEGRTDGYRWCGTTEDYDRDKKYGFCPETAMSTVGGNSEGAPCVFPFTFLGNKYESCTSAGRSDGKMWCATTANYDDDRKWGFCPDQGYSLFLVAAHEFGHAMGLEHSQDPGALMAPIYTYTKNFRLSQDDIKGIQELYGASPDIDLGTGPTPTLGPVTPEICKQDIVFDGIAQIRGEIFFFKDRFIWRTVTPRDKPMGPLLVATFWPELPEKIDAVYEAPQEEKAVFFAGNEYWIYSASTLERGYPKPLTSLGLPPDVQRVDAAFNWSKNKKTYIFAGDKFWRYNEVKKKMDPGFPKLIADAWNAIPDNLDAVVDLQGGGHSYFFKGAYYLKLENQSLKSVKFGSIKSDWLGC

For granzyme B, the “in vitro cleavage assay” value is recorded as “modified CTLA-4 Ig demonstrated specific cleavage by GzmB”.
In the case of matrix metalloproteinase 2, the “in vitro cleavage assay” value is “no cross-cleavage by matrix, complement, or immune proteases”.
The result for mannose-associated serine protease 1 reads “no cross-cleavage by matrix, complement, or immune proteases”.
The result for Cathepsin B reads “no cross-cleavage by matrix, complement, or immune proteases”.
The result for matrix metalloproteinase 9 reads “no cross-cleavage by matrix, complement, or immune proteases”; that for matrix metalloproteinase 15, “no cross-cleavage by matrix, complement, or immune proteases”.
